Experimental data: PMC6156451 (Frontiers in Molecular Neuroscience, 2018)
No end group written: not given here.

Experiments:
[1] = target: ROS-GC1 peptide 1 peptide 1 (Bos taurus) (UniProt P55203); experiment: fluorescence
[2] = target: myristoylated guanylyl cyclase-activating protein 2 (GCAP-2), bovine (bovine) (UniProt P51177); experiment: SPR; GCAP-2 immobilised by amine coupling on 2D CMD sensor slides; peptides injected at 0.5-40 uM (peptide 3: 5-40 uM); 20 mM HEPES, 0.05% Tween, pH 7.5, 22°C, 30 ul/min; two-state model with equimolar binding; calcium not controlled, ~2 uM
[3] = target: myristoylated guanylyl cyclase-activating protein 2 (GCAP-2), bovine (bovine) (UniProt P51177); experiment: other fluorescence titration; GCAP-2 mixed with increasing concentrations of peptide in 20 mM HEPES pH 7.5, 20°C; excitation 280 nm, emission 350 nm; calcium not controlled, ~2 uM
GCAP-2 [4] = target: T1, GCAP-2 (Bos taurus, UniProt P51177); experiment: Surface plasmon resonance (SPR), GCAP-2/ROS-GC peptide interaction; assay type: binding, bovine
T1 construct: made in house; host or cells: E. coli BL21 (DE3), vector pET-11a, co-expressed with yeast N-myristoyltransferase I (pBB131)
T1 sequence (P51177 1-204): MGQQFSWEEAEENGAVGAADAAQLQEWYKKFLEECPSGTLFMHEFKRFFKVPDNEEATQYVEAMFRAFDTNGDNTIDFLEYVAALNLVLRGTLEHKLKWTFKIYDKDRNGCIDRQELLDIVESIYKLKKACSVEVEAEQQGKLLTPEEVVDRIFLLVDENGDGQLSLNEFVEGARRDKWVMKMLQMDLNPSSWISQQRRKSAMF

GCAP-2 [5] = target: T1, GCAP-2; experiment: Fluorescence spectroscopy titration of ROS-GC peptides to GCAP-2; set-up: species or system bovine; details: excitation 280 nm, emission 350 nm, 20 mM HEPES pH 7.5, 20°C, calcium ~2 μM, read-out: KD1 (first binding event)
Experimental: Fluorescence measurements were carried out with a Jasco Spectrofluorometer FP-8200, equipped with a Jasco MCB-100 Mini Circulation Bath (20°C, xenon lamp, data interval 0.5 nm, accumulation number 3). The excitation wavelength was 280 nm, fluorescence emission was recorded at 350 nm to exclude self-fluorescence of non-bound peptide. […] As a negative control, separate recordings were performed with N-acetyl-L-tryptophanamide or N-acetyl-L-tyrosinamide, respectively.
A wavelength of 350 nm was chosen to rule out that changes in fluorescence originate from an increased concentration of non-bound peptide.

Sequence of ROS-GC1 peptide 1 peptide 1 (Bos taurus) (P55203 57-1110): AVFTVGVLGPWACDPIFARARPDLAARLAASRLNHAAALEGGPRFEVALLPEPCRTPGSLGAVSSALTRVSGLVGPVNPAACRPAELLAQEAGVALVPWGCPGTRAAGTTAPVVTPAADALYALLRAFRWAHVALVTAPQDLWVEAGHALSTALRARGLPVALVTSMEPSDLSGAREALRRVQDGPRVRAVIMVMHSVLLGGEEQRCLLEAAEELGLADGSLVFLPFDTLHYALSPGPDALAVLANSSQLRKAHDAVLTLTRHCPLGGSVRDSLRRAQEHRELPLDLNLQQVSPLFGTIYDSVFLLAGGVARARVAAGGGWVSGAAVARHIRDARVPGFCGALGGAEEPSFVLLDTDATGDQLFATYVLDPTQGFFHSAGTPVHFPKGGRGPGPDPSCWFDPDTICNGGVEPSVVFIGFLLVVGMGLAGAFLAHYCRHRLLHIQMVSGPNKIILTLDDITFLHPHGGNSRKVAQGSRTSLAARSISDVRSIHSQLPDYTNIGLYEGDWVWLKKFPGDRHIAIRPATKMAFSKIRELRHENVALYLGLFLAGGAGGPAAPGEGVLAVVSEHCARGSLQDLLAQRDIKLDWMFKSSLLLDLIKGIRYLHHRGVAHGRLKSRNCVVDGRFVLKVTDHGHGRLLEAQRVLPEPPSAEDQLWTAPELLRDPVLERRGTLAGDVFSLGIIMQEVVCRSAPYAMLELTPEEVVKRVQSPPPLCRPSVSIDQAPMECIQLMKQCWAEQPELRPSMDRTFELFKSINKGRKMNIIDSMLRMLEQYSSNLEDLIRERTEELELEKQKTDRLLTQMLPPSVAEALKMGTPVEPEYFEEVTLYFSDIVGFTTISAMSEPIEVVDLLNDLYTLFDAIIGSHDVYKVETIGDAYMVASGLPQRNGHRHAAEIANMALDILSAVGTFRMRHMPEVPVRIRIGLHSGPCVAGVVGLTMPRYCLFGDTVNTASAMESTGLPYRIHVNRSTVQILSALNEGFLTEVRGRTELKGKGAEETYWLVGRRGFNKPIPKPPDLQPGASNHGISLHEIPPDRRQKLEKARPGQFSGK

Substance: GCAP-2 (from UniProt P51177)
- Kd [1]: 244000 nM

Substance: ROS-GC1 peptide 1 (aa 965-981), postulated GCAP-2 binding motif
- Kd [2]: 1120 nM
- KD1 (first binding event) [3]: 4.2 µM
- KD2 (second binding event) [3]: 244 µM

Substance: ROS-GC1 peptide 2 (aa 942-981), N-terminal extension of peptide 1 with a part of the catalytic domain
- Kd [2]: 3000 nM
- KD1 (first binding event; set by extrapolation) [3]: 1 µM

Substance: YRIHVNRSTVQILSALN [Peptide 1]
- Kd (GCAP-2 [4]): 2360 nM
- Kd (GCAP-2 [5]): 4200 nM
